Assays:
[1] = test system: naïve high-threshold (HT) trigeminovascular neurons; assay: Single-unit recording of naïve central trigeminovascular neurons, HT neurons; format: in vivo, rat; settings: 30 mg/kg IV
Source text: Experiments were approved by the Beth Israel Deaconess Medical Center and Harvard Medical School standing committees on animal care, and in accordance with the U.S. National Institutes of Health Guide for the Care and Use of Laboratory Animals. Male and female Sprague-Dawley rats (250-350 g) were anesthetized with urethane (0.9-1.2 g/kg i.p.). They were fitted with an intra-tracheal tube to allow artificial ventilation (0.1 L/min of (O2), and an intra-femoral-vein cannula for later infusion of drugs. Rats were placed in a stereotaxic apparatus, and core temperature was kept at 37° C. using a heating blanket. End-tidal […] was continuously monitored and kept within physiological range (3.5-4.5 pCO2). Once stabilized, rats were paralyzed with rocuronium bromide (10 mg/ml, 1 ml/hr continuous intravenous infusion) and ventilated. For stimulation of the cranial dura later in the experiment, a 5×5-mm opening was carefully carved in the parietal and occipital bones in front and behind the lambda suture, directly above the left transverse sinus. The exposed dura was kept moist using a modified synthetic interstitial fluid (135 mM NaCl, 5 mM KCl, 1 mM MgCl2, 5 mM CaCl2, 10 mM glucose and 10 mM Hepes, pH 7.2). For single-unit recording in the spinal trigeminal nucleus, a segment of the spinal cord between the obex and C2 was uncovered from overlying tissues, stripped of the dura mater, and kept moist with mineral oil.
To record neuronal activity, a tungsten microelectrode (impedance 3-4 MΩ) was lowered repeatedly into the spinal trigeminal nucleus (STN) in search of central trigeminovascular neurons receiving convergent input from the dura and facial skin. Trigeminovascular neurons were first identified based on their responses to electrical stimulation of the dura. […] Dural receptive fields were mapped by indenting the dura (with the 4.19 g VFH monofilament) at points separated by 1 mm mediolaterally and rostrocaudally. Points at which dural indentation produced a response in ≥50% of the trials were considered inside the neurons receptive field. Cutaneous receptive fields were mapped by applying innocuous and noxious mechanical stimulation to all facial skin areas and the cornea. An area was considered outside the receptive field if no stimulus produced a response in ≥50% of the trials. Responses to mechanical stimulation of the skin were determined by applying brief (10 s) innocuous and noxious stimuli to the most sensitive portion of the cutaneous receptive field. Innocuous stimuli consisted of slowly passing a soft bristled brush across the cutaneous receptive field (one 5-s brush stroke from caudal to rostral and one 5-s brush stroke from rostral to caudal) and pressure applied with a loose arterial clip. Noxious stimuli consisted of pinch with a strong arterial clip (Palecek et al., 1992, J. Neurophysiol. 67:1562-1573; Dado et al., 1994, J. Neurophysiol. 71:981-1002; Burstein et al., 1998, J. Neurophysiol. 79:964-982). More intense or prolonged stimuli were not used to avoid inducing prolonged changes in spontaneous neuronal discharge or response properties. […] Real-time waveform discriminator was used to create and store a template for the action potential evoked in the neuron under study by electrical pulses on the dura; spikes of activity matching the template waveform were acquired and analyzed online and offline using Spike 2 software (CED, Cambridge, UK). […]

[2] = test system: wide-dynamic range (WDR) trigeminovascular neurons; assay: Activation of central trigeminovascular neurons by cortical spreading depression (CSD), WDR neurons; format: in vivo, rat
Protocol: Cortical spreading depression (CSD) was induced mechanically by inserting a glass micropipette (tip diameter 25 μm) about 1 mm into the visual cortex for 10 sec. At a propagation rate of 3-5 mm/min, a single wave of CSD was expected to enter the neuronal receptive field within 1-2 min of cortical stimulation. For verification of CSD, cortical activity was recorded (electrocorticogram) with a glass micropipette (0.9% saline, ˜1 megohm, 7 um tip) placed just below the surface of the cerebral cortex (approximately 100 μm). The electrocorticogram electrode was positioned about 6 mm anterior to the visual cortex. […]
The experimental protocol included two parts. […] In the first part, the baseline neuronal profile was established by (a) mapping the dural, cutaneous and corneal receptive field; (b) measuring responses (mean spikes/sec) to mechanical stimulation of the dura (with a fixed force), skin (brush, pressure, pinch) and cornea (brush), and (c) measuring spontaneous firing rate (recorded over 30 min prior to treatment). […] In the second part, CSD was induced 4 hours after administration of CGRP-mAb or isotype-conAb and 2 hours later (i.e., 6 hours after treatment) receptive field size, spontaneous activity rate, and response magnitude to stimulation of the dura, skin and cornea were measured again. […]

B1: fremanezumab (antibody)
heavy: EVQLVESGGGLVQPGGSLRLSCAASGFTFSNYWISWVRQAPGKGLEWVAEIRSESDASATHYAEAVKGRFTISRDNAKNSLYLQMNSLRAEDTAVYYCLAYFDYGLAIQNYWGQGTLVTVSSASTKGPSVFPLAPCSRSTSESTAALGCLVKDYFPEPVTVSWNSGALTSGVHTFPAVLQSSGLYSLSSVVTVPSSNFGTQTYTCNVDHKPSNTKVDKTVERKCCVECPPCPAPPVAGPSVFLFPPKPKDTLMISRTPEVTCVVVDVSHEDPEVQFNWYVDGVEVHNAKTKPREEQFNSTFRVVSVLTVVHQDWLNGKEYKCKVSNKGLPSSIEKTISKTKGQPREPQVYTLPPSREEMTKNQVSLTCLVKGFYPSDIAVEWESNGQPENNYKTTPPMLDSDGSFFLYSKLTVDKSRWQQGNVFSCSVMHEALHNHYTQKSLSLSPGK
light: EIVLTQSPATLSLSPGERATLSCKASKRVTTYVSWYQQKPGQAPRLLIYGASNRYLGIPARFSGSGSGTDFTLTISSLEPEDFAVYYCSQSYNYPYTFGQGTKLEIKRTVAAPSVFIFPPSDEQLKSGTASVVCLLNNFYPREAKVQWKVDNALQSGNSQESVTEQDSKDSTYSLSSTLTLSKADYEKHKVYACEVTHQGLSSPVTKSFNRGEC
notes: humanized anti-CGRP antagonist antibody, vectors ATCC PTA-6867 and PTA-6866
- spontaneous activity of HT neurons ([1]; female rats): did not reduce the spontaneous activity
- decrease of firing of HT neurons in response to mechanical stimulation of the dura ([1]; female rats, p=0.017): 61%
- responses of HT neurons to innocuous (brush, pressure) or noxious (pinch) mechanical stimulation of the skin or the cornea ([1]; male or female rats): did not alter the responses
- decrease of firing of HT neurons in response to mechanical stimulation of the dura ([1]; male rats, p=0.047): 75%
- decrease of spontaneous neuronal firing of HT neurons ([1]; male rats, within 3-4 hrs, p=0.040): 90%
- difference in WDR neurons activated by CSD versus isotype-conAb ([2]; 5/13 versus 4/10): 2%
- WDR neurons activated by CSD (case-by-case analysis) ([2]; male and female rats, activated/tested): 5/13

From US10766952B2, “Methods for reducing migraine frequency in a subject in need thereof” (Beth Israel Deaconess Medical Center, Inc., priority 2017, dated 2020)
